Assay results reported in patent EP0669979B1 (GENENTECH, INC., dated 2005).

T1: C-C chemokine receptor 1 (C-C CKR-1) (human, UniProt P32246 1-355)
T1 construct: Transiently expressed from pRK5 in human embryonic kidney 293 cells; also called JOSH1; cloned C-C CKR-1
T1 sequence: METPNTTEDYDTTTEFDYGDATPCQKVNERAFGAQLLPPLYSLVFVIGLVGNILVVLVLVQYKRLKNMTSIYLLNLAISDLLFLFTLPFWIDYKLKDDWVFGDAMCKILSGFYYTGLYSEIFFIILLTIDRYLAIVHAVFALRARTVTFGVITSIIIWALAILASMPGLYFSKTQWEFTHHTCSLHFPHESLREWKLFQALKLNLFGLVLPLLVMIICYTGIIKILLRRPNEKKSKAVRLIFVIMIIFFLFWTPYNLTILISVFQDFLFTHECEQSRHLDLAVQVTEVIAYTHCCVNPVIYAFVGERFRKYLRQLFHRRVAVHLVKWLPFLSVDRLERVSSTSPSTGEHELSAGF

B1: RANTES (Regulated on Activation, Normal T Expressed and Secreted) (ligand, UniProt P13501 24-91, looked up)
chain: SPYSSDTTPCCFAYIARPLPRAHIKEYFYTSGKCSNPAVVFVTRKNRQVCANPEKKWVREYINSLEMS
modifications: ends and bridges not checked; also: 125I-labeled where used as tracer
B2: murine MIP-1α (ligand, UniProt P10855 24-92, looked up)
chain: APYGADTPTACCFSYSRKIPRQFIVDYFETSSLCSQPGVIFLTKRNRQICADSKETWVQEYITDLELNA
B3: human MIP-1α (HuMIP-1α) (ligand, UniProt P10147 24-92, looked up)
chain: SLAADTPTACCFSYTSRQIPQNFIADYFETSSQCSKPGVIFLTKRSRQVCADPSEEWVQKYVSDLELSA
modifications: ends and bridges not checked; also: 125I-iodinated (chloroglycoluril) where used as tracer
notes: also called HuMIP-1a
B4: human MIP-1β (HuMIP-1β) (ligand, UniProt P13236 24-92, looked up)
chain: APMGSDPPTACCFSYTARKLPRNFVVDYYETSSLCSQPAVVFQTKRSKQVCADPSESWVQEYVYDLELN
notes: also called HuMIP-1b; MIP-lb

Assays:
[1] = biological target: T1, C-C chemokine receptor 1 (C-C CKR-1); test: heterologous displacement of 125I-HuMIP-1α on 293 cells expressing C-C CKR-1, Scatchard analysis
[2] = biological target: T1, C-C chemokine receptor 1 (C-C CKR-1); test: 125I-HuMIP-1α displaced by unlabeled HuMIP-1α on 293 cells expressing C-C CKR-1, 4 °C, Scatchard analysis
[3] = biological target: T1, C-C chemokine receptor 1 (C-C CKR-1); test: heterologous displacement of 125I-RANTES by unlabeled HuMIP-1α on 293 cells expressing C-C CKR-1, Scatchard analysis

Row | Binder | Kd [1] | Kd [2] | Kd [3]
1 | B1 | 468 nM | – | –
2 | B2 | 4.2 nM | – | –
3 | B3 | – | 5.1 nM | 7.6 nM
4 | B4 | 232 nM | – | –
